According to US20240034816A1 (Sanofi, published 2024):

How the values were obtained:
human CD64 (human FcγRI) [1] = target: T1, human CD64 (human FcγRI) (human, UniProt P12314 16-292, limits assumed); assay: SPR, fit 1:1 Binding, Exp No 3
T1 construct: also called HuFcyRI

cynomolgus CD16 [2] = target: T2, cynomolgus CD16 (cynomolgus, UniProt Q8SPW2 17-208); assay: SPR, fit Two State Reaction, Exp No 3
T2 construct: also called CyFcyRIII

[3] = target: T3, human CD16a (human FcγRIIIA), V isoform (human, UniProt P08637 17-208); assay: SPR, fit Two State Reaction, Exp No 3
T3 construct: also called HuFcyRIIIaV; CD16a (V176)

cynomolgus CD16 [4] = target: T2, cynomolgus CD16; assay: SPR, fit Two State Reaction, Exp No 1
[5] = target: T3, human CD16a (human FcγRIIIA), V isoform; assay: SPR, fit Two State Reaction, Exp No 1
cynomolgus CD16 [6] = target: T2, cynomolgus CD16; assay: SPR, fit Two State Reaction, mean of 3 experiments
[7] = target: T3, human CD16a (human FcγRIIIA), V isoform; assay: SPR, fit Two State Reaction, mean of 3 experiments
[8] = target: T4, recombinant cynomolgus NKp46 extracellular domain with C-terminal Flag-M2 tag (cynomolgus, UniProt Q95JB9 22-254); assay: SPR (Biacore 8K), NKCE captured by anti-human Fc, antigen as analyte, 1:1 model; mean of 3 experiments
T4 construct: range 22-254; also called cyno NKp46; not shown: C-terminal Flag-M2 tag
Method: (§1) Measurements were performed in multicycle kinetics experiments for each antibody using a Biacore 8K instrument. In each multicycle experiment the antibodies were captured via an anti-hum a Fc antibody immobilized on a series S CM5 sensor chip (human antibody capture kit, Cytiva, Uppsala, Catalog No. BR1008-39).
(§2) The antigens, diluted as described above (concentration range 0.1 nM to 50 nM), were injected at a flow rate of 60 μL/min for 240 sec followed by a dissociation phase of 400 sec. All analyte concentrations were run in duplicate together with multiple buffer blanks for double referencing. Regeneration of the capture surface was performed with regeneration solution (3 mol/L MgCl2) for 60 sec at 30 μL/min. Binding kinetics data were evaluated with the Biacore 8K Evaluation Software version 1.1.1.7442 using a 1:1 binding model with mass transport limitation.

cyno BCMA (PPB-17990) [9] = target: T5, cyno BCMA (PPB-17990) (cynomolgus, UniProt A0A2K5UD97 1-53); assay: as above
T5 construct: also called cynomolgus BCMA
Method: as §1, §2

[10] = target: T6, recombinant human NKp46 extracellular domain (Gln22-Asn255) with C-terminal 6xHis tag (human, UniProt O76036 22-255); assay: as above
T6 construct: range 22-255; also called huNKp46
Method: as §1, §2

recombinant human BCMA [11] = target: T7, recombinant human BCMA (human, UniProt Q02223 1-54); assay: as above
Method: as §1, §2

[12] = target: human neonatal Fc receptor (FcRn) (human, UniProt P55899 24-297; P61769 21-119); assay: SPR, binding to huFcRn at pH 6.0
human CD64 (human FcγRI) [13] = target: T1, human CD64 (human FcγRI); assay: SPR, fit 1:1 Binding, mean of 3 experiments
human CD64 (human FcγRI) [14] = target: T1, human CD64 (human FcγRI); assay: SPR, fit 1:1 Binding, Exp No 2
cyno BCMA (PPB-17990) [15] = target: T5, cyno BCMA (PPB-17990); assay: SPR (Biacore 8K), NKCE captured by anti-human Fc, antigen as analyte, 1:1 model; Experiment No 1
Method: as §1, §2

recombinant human BCMA [16] = target: T7, recombinant human BCMA; assay: as above
Method: as §1, §2

cynomolgus CD32a = target: T8, cynomolgus CD32a (cynomolgus); assay: SPR, fit Steady State Affinity, Exp No 1
T8 construct: also called CyFcyRIIa

[17] = target: T9, human CD32b (human FcγRIIB) (human, UniProt P31994 43-217, limits assumed); assay: SPR, fit Steady State Affinity, Exp No 1
T9 construct: also called HuFcyRIIb
T9 sequence (looked up): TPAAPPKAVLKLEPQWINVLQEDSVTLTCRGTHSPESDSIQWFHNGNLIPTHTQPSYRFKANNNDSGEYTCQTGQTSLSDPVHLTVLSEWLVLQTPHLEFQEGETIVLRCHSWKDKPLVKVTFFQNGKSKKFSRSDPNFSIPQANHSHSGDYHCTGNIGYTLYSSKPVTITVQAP

[18] = target: T10, human CD32a (human FcγRIIA) (human, UniProt P12318 34-217, limits assumed); assay: SPR, fit Steady State Affinity, Exp No 1
T10 construct: also called HuFcyRIIa
T10 sequence (looked up): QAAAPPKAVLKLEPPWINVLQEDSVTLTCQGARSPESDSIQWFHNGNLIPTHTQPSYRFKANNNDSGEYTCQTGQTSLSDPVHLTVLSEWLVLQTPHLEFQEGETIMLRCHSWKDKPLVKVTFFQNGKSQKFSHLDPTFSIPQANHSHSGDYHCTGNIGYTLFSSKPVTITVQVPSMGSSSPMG

[19] = target: T11, human CD16b (human FcgRIIIB) (human, UniProt O75015 17-200, limits assumed); assay: SPR, fit Steady State Affinity, Exp No 1
T11 construct: also called HuFcyRIIIb

cynomolgus CD32b = target: T12, cynomolgus CD32b (cynomolgus); assay: SPR, fit Steady State Affinity, Exp No 1
T12 construct: also called CyFcyRIIb

T1 sequence (P12314 16-292 limits assumed): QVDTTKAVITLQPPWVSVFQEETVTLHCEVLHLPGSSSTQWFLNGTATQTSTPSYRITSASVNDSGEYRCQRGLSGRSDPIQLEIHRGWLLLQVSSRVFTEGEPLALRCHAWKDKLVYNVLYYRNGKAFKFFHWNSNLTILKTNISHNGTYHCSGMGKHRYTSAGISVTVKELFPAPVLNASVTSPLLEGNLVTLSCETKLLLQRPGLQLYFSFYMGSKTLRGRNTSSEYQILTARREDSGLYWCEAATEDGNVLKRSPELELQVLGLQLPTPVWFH
T2 sequence (Q8SPW2 17-208): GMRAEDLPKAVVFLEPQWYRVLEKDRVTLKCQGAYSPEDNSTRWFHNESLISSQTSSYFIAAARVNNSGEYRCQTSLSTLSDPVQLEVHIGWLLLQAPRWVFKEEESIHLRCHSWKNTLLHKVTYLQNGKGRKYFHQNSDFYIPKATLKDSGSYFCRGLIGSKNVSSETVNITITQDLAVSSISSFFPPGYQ
T3 sequence (P08637 17-208 F176V limits assumed): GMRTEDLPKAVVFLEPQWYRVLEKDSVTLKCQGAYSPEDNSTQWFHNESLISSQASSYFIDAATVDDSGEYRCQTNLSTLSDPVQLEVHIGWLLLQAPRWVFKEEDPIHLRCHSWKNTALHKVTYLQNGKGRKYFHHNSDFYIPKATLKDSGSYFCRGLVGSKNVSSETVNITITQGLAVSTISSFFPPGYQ
T5 sequence (A0A2K5UD97 entry or part of it): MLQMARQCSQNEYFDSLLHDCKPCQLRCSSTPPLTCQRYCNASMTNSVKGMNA
T4 sequence (Q95JB9 22-254): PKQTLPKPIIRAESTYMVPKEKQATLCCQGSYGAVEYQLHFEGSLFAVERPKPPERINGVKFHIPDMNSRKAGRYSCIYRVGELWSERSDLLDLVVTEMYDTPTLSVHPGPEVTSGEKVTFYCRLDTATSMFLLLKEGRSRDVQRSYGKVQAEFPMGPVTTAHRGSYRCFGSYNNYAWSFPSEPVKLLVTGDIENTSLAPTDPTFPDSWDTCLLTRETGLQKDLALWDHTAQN
Sequence of human neonatal Fc receptor (FcRn) (P55899 24-297 limits assumed, chain 1 of 2): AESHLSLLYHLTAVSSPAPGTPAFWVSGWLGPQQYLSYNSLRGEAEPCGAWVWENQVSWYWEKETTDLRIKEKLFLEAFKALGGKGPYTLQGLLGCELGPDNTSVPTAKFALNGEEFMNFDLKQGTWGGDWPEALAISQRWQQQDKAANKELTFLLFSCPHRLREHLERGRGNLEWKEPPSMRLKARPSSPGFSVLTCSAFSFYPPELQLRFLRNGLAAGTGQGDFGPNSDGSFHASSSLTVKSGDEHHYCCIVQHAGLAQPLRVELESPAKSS
Sequence of human neonatal Fc receptor (FcRn) (P61769 21-119 limits assumed, chain 2 of 2): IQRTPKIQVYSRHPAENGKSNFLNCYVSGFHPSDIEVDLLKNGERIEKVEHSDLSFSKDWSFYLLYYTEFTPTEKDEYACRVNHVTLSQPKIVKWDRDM
T11 sequence (O75015 17-200 limits assumed): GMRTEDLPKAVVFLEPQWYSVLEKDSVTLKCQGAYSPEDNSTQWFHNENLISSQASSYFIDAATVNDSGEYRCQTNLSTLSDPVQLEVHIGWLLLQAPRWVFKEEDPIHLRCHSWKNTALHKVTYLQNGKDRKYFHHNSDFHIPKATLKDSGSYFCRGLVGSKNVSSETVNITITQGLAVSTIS
T6 sequence (O76036 other isoform, or with tags, fused parts or gaps limits assumed): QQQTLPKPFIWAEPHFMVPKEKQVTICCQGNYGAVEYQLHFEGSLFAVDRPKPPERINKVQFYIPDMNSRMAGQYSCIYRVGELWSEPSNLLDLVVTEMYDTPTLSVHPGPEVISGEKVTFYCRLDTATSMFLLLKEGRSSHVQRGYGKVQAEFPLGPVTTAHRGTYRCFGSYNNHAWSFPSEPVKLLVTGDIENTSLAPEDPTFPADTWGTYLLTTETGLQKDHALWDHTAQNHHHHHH

B1: NKp46-BCMA_Fc-ADE-DSB NKCE (bispecific antibody, human IgG1, kappa)
light: QTVVTQEPSLTVSPGGTVTLTCASSTGTVTPSNYANWVQQKPGQAFRGLIGDNNSRPPGTPARFSASLLGGKAALTLSGVQPEDEAEYYCALWFGNQWVFGGGTKLTVLGGGGSGGGGSDIQMTQSPSSLSASVGDRVTITCRASQDISNYLNWYQQKPGKAPKLLIYYTSRLHSGVPSRFSGSGSGTDFTFTISSLQPEDIATYFCQQGNTRPWTFGGGTKVEIKGGGGSGGGGSRTVAAPSVFIFPPSDEQLKSGTASVVCLLNNFYPREAKVQWKVDNALQSGNSQESVTEQDSKDSTYSLSSTLTLSKADYEKHKVYACEVTHQGLSSPVTKSFNRGEC
heavy: QVQLVQSGAEVKKPGSSVKVSCKASGYTFSDYVINWVRQAPGQGLEWMGEIYPGSGTNYYNEKFKAKATITADKSTSTAYMELSSLRSEDTAVYYCARRGRYGLYAMDYWGQGTTVTVSSQVQLVESGGGVVQPGRSLRLSCAASGFTFSNFGMHWVRQAPGRGLEWVAVIWSDETNRYYADSVKGRFTVSRDNVKSTVYLQMNSLISEDTAVYYCARDQQYCSSDSCFTWFDPWGQGTLVTVSSASTKGPSVFPLAPSSKSTSGGTAALGCLVKDYFPEPVTVSWNSGALTSGVHTFPAVLQSSGLYSLSSVVTVPSSSLGTQTYICNVNHKPSNTKVDKKVEPKSCDKTHTCPPCPAPELLAGPDVFLFPPKPKDTLMISRTPEVTCVVVDVSHEDPEVKFNWYVDGVEVHNAKTKPCEEQYNSTYRCVSVLTVLHQDWLNGKEYKCKVSNKALPAPEEKTISKAKGQPREPQVYTLPPCRDELTKNQVSLWCLVKGFYPSDIAVEWESNGQPENNYKTTPPVLDSDGSFFLYSKLTVDKSRWQQGNVFSCSVMHEALHNHYTQKSLSLSPG
chain: DKTHTCPPCPAPELLAGPDVFLFPPKPKDTLMISRTPEVTCVVVDVSHEDPEVKFNWYVDGVEVHNAKTKPCEEQYNSTYRCVSVLTVLHQDWLNGKEYKCKVSNKALPAPEEKTISKAKGQPREPQVCTLPPSRDELTKNQVSLSCAVKGFYPSDIAVEWESNGQPENNYKTTPPVLDSDGSFFLVSKLTVDKSRWQQGNVFSCSVMHEALHNRFTQKSLSLSPG
Human CD64 (human FcγRI) [1]
  Kd: 0.38 nM
Cynomolgus CD16 [2]
  Kd: 15.7 nM
[3]
  Kd: 16.5 nM
Cynomolgus CD16 [4]
  Kd: 10 nM
[5]
  Kd: 11.7 nM
Cynomolgus CD16 [6]
  Kd: 11.7 nM
[7]
  Kd: 13.4 nM
[8]
  Kd: 16.9 nM
Cyno BCMA (PPB-17990) [9]
  Kd: 0.3 nM
[10]
  Kd: 12.5 nM
Recombinant human BCMA [11]
  Kd: 0.2 nM
[12]
  Kd: 756 nM
Human CD64 (human FcγRI) [13]
  Kd: 0.32 nM
Human CD64 (human FcγRI) [14]
  Kd: 0.27 nM
Cyno BCMA (PPB-17990) [15]
  Kd: 0.4 nM
  koff: 7.2e-05 s⁻¹
  kon: 170000 M⁻¹ s⁻¹
Recombinant human BCMA [16]
  Kd: 0.2 nM
  koff: 6.1e-05 s⁻¹
  kon: 280000 M⁻¹ s⁻¹
Cynomolgus CD32a
  Kd: 1350 nM
[17]
  Kd: 1350 nM
[18]
  Kd: 415 nM
[19]
  Kd: 1260 nM
Cynomolgus CD32b
  Kd: 884 nM
